The substances below were run against TNF-alpha (assay: cell-based or functional assay).
Set-up: unit not given beside the values

TNFR2-h(1)Fc, sequence (chain): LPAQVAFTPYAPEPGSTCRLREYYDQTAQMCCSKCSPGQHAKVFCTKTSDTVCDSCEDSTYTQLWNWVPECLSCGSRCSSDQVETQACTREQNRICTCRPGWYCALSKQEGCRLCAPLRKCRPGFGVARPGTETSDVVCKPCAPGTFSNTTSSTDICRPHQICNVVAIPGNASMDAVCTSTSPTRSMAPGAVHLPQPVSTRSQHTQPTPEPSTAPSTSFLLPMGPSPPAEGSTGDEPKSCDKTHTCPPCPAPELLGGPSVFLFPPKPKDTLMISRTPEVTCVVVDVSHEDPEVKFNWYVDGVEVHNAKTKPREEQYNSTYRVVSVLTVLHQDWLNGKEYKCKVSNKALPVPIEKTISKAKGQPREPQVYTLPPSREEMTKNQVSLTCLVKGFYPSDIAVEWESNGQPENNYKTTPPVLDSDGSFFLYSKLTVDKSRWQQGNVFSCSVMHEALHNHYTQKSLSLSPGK

Going from D47N/E155N TNFR2-h(1)Fc (Fc fusion) to D47N S202N TNFR2-h(1)Fc (Fc fusion), the IC50 (WEHI Assay), normalized (normalized to TNFR2-h(1)Fc wt) falls from 1.6 to 1.1.

Compared with “E155N S202N G253N TNFR2-h(1)Fc (Fc fusion)”, S202N G253N TNFR2-h(1)Fc (Fc fusion) is lower in IC50 (WEHI Assay), normalized (normalized to TNFR2-h(1)Fc wt): 0.25 for the first, 0.23 for the second.

Going from D47N TNFR2-h(1)Fc (Fc fusion) to E155N G253N TNFR2-h(1)Fc (Fc fusion), the IC50 (WEHI Assay), normalized (normalized to TNFR2-h(1)Fc wt) falls from 1.9 to 0.57.

First: D47N/G253N TNFR2-h(1)Fc (Fc fusion)
Second: TNFR2-h(1)Fc (Fc fusion)
The IC50 (WEHI Assay), normalized (normalized to TNFR2-h(1)Fc wt) of the first is higher: 3 for the first, 1 for the second.

Compared with T203N P205S TNFR2-h(1)Fc (Fc fusion), T222N TNFR2-h(1)Fc (Fc fusion) is lower in IC50 (WEHI Assay), normalized (normalized to TNFR2-h(1)Fc wt): 0.29 for the first, 0.25 for the second.
